Results as given in patent US20260242478A1 (published 2026).
Where no end group is shown, it is not given here.

B1: Phage-456 (peptide)
peptide: FMCLPQNPHPLCFK
notes: Clonal phage supernatant; not shown: bacteriophage pIII to which the peptide is fused for display
B2: Phage-468 (peptide)
peptide: YWYCSPSIVRCVLV
modifications: cysteine pairing not given here; also: displayed on phage, fused to pIII
notes: as for B1
B3: Phage-454 (peptide)
peptide: YWSCFQIPFTCFYF
notes: as for B1
B4: Phage-464 (peptide)
peptide: WCWDYKLWVPMTCP
modifications: cysteine pairing not given here; also: displayed on phage, fused to pIII
notes: as for B1
B5: Phage-459 (peptide)
peptide: GCQYPWAFDAMSCP
modifications: cysteine pairing not given here; also: displayed on phage, fused to pIII
notes: as for B1
B6: Phage-465 (peptide)
peptide: DCWWMFESYPGRCI
modifications: cysteine pairing not given here; also: displayed on phage, fused to pIII
notes: as for B1
B7: Phage-466 (peptide)
peptide: YCAGHAWQYINKCL
modifications: cysteine pairing not given here; also: displayed on phage, fused to pIII
notes: as for B1
B8: Phage-462 (peptide)
peptide: ECHWSMWAVGHACF
modifications: cysteine pairing not given here; also: displayed on phage, fused to pIII
notes: as for B1
B9: Phage-463 (peptide)
peptide: YCAGHSPINIGKCL
modifications: cysteine pairing not given here; also: displayed on phage, fused to pIII
notes: as for B1
B10: Phage-460 (peptide)
peptide: WCWDYKLWVPTQCP
modifications: cysteine pairing not given here; also: displayed on phage, fused to pIII
notes: as for B1
B11: Phage-455 (peptide)
peptide: WECLKYTEANACTY
notes: as for B1
B12: Phage-470 (peptide)
peptide: WICDKSGSIMLCRA
notes: as for B1
B13: Phage-461 (peptide)
peptide: WCWDYREWVPMTCP
modifications: cysteine pairing not given here; also: displayed on phage, fused to pIII
notes: as for B1
B14: Phage-467 (peptide)
peptide: WCWYYREWVPMTCP
modifications: cysteine pairing not given here; also: displayed on phage, fused to pIII
notes: as for B1
B15: Phage-458 (peptide)
peptide: ACDTYFAGMINECF
modifications: cysteine pairing not given here; also: displayed on phage, fused to pIII
notes: as for B1
B16: Phage-457 (peptide)
peptide: PDCQTILFKPWCVR
modifications: cysteine pairing not given here; also: displayed on phage, fused to pIII
notes: as for B1
B17: Phage-471 (peptide)
peptide: SCAAGASYAWPYCL
notes: as for B1
B18: Phage-109 (peptide)
peptide: MDWCPKNLWHVCFN
modifications: cysteine pairing not given here; also: phage-displayed pIII fusion, pIII and linker not given here
B19: Phage-112 (peptide)
peptide: MHWCPRALWDVCYN
modifications: cysteine pairing not given here; also: phage-displayed pIII fusion, pIII and linker not given here
B20: Phage-93 (peptide)
peptide: MDWCPRYLWTVCFS
modifications: cysteine pairing not given here; also: displayed on phage as fusion to pIII, linker not given here
B21: Phage-111 (peptide)
peptide: MDWCPFYLWNECFY
modifications: cysteine pairing not given here; also: phage-displayed pIII fusion, pIII and linker not given here
B22: Phage-97 (peptide)
peptide: MDWCPKDLWDYCFA
modifications: cysteine pairing not given here; also: displayed on phage as fusion to pIII, linker not given here
B23: Phage-94 (peptide)
peptide: MDWCPRDLWSLCFY
modifications: cysteine pairing not given here; also: displayed on phage as fusion to pIII, linker not given here
B24: Phage-113 (peptide)
peptide: MDWCPRDLWNVCFF
modifications: cysteine pairing not given here; also: phage-displayed pIII fusion, pIII and linker not given here
B25: Phage-96 (peptide)
peptide: MDWCPRTLWAYCFN
modifications: cysteine pairing not given here; also: displayed on phage as fusion to pIII, linker not given here
B26: Phage-115 (peptide)
peptide: MDWCPRYLWHECFN
modifications: cysteine pairing not given here; also: phage-displayed pIII fusion, pIII and linker not given here
B27: Phage-100 (peptide)
peptide: MDWCPRYLWTECFN
modifications: cysteine pairing not given here; also: phage-displayed pIII fusion, pIII and linker not given here
B28: Phage-110 (peptide)
peptide: MDWCPRYLWDECFN
modifications: cysteine pairing not given here; also: phage-displayed pIII fusion, pIII and linker not given here
B29: Phage-98 (peptide)
peptide: MDWCPKYLWDVCFN
modifications: cysteine pairing not given here; also: displayed on phage as fusion to pIII, linker not given here
B30: Phage-99 (peptide)
peptide: MDWCPRYLWNMCFH
modifications: cysteine pairing not given here; also: displayed on phage as fusion to pIII, linker not given here
B31: Phage-95 (peptide)
peptide: MDWCPRFLWSECFN
modifications: cysteine pairing not given here; also: displayed on phage as fusion to pIII, linker not given here
notes: also called position columns give F at position 7)
B32: Phage-114 (peptide)
peptide: MDWCPRYLWFECFA
modifications: cysteine pairing not given here; also: phage-displayed pIII fusion, pIII and linker not given here

The binders below were run against T1, Anti-CD28 Fab (SEQ ID NOs: 696, 697) (assay: phage binding ELISA on plate-captured Fab, competitor CD28 antigen).
T1 construct: In the phage ELISA the Fab was biotinylated and captured on neutravidin coated plates
T1 sequence (VH, as listed by the source, chain 1 of 2): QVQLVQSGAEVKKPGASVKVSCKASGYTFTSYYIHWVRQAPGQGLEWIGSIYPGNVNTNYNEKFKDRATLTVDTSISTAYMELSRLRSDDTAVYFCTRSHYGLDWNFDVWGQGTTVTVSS
T1 sequence (VL, as listed by the source, chain 2 of 2): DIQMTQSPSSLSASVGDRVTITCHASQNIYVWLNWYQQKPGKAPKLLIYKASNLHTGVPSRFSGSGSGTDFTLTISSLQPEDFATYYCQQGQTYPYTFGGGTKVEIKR
Procedure: (§1) After panning, phage infected bacteria were plated out and colonies picked into 96 well blocks. Clonal phage was then amplified and separated from bacterial cells via centrifugation.
(§2) Clonal phage were harvested as crude supematants and screened via standard ELISAs. […] Prior to the addition of clonal phage, wells were incubated with blocking buffer and CD28 antigen or blocking buffer alone. Without washing or aspirating, clonal phage supematants were then added to the wells and incubated for a short time. Wells were then washed followed by detection of bound phage using a horse radish conjugated anti-M13 antibody. Clonal phage of interest were then sent for sequence analysis.
For B1, the “Anti-CD28 Fab signal in the presence of CD28” value (shortened to “Anti-CD28 Fab signal”) was 0.06.
For B2, the “Anti-CD28 Fab signal” value was 0.09.
In the case of B3, the “Anti-CD28 Fab signal” value is reported as 0.27.
For B4, the “Anti-CD28 Fab signal” value was 0.11.
With B5 the “Anti-CD28 Fab signal” value was 0.07.
With B6 the “Anti-CD28 Fab signal” value was 0.07.
B7 was tested, and the “Anti-CD28 Fab signal” value was 0.07.
For B8, the “Anti-CD28 Fab signal” value was 0.07.
With B9 the “Anti-CD28 Fab signal” value was 0.06.
With B10 the “Anti-CD28 Fab signal” value was 0.14.
In the case of B11, the “Anti-CD28 Fab signal” value is reported as 0.07.
With B12 the “Anti-CD28 Fab signal” value was 0.06.
For B13, the “Anti-CD28 Fab signal” value was 0.08.
In the case of B14, the “Anti-CD28 Fab signal” value is reported as 0.07.
For B15, the “Anti-CD28 Fab signal” value was 0.1.
With B16 the “Anti-CD28 Fab signal” value was 0.06.
For B17, the “Anti-CD28 Fab signal” value was 0.05.

These binders were tested against T2, anti-CD28 scFv (VH - linker 1 - VL) (biotinylated (site not given)) (assay: phage ELISA as above; wells pre-incubated with soluble CD28 as competitor;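 note: crude clonal phage supernatants tested, with bound phage detected by HRP-conjugated anti-M13 antibody, and reference wells given blocking buffer without CD28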).
T2 construct: Biotinylated scFv captured on neutravidin coated plates in the panning ELISA
T2 sequence (scFv, as listed by the source): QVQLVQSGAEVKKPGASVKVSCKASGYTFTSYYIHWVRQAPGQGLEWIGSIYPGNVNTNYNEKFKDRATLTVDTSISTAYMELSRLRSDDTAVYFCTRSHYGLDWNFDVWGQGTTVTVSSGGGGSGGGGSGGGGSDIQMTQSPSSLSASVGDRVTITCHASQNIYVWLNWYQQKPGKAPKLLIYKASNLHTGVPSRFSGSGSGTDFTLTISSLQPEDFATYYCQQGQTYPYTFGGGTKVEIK
B18 was tested, and the “CD28 scFv signal in presence of CD28” value was 0.248.
In the case of B19, the “CD28 scFv signal in presence of CD28” value is reported as 0.24.
With B20 the “CD28 scFv signal in presence of CD28” value was 0.372.
For B21, the “CD28 scFv signal in presence of CD28” value was 0.594.
B22 was tested, and the “CD28 scFv signal in presence of CD28” value was 0.165.
In the case of B23, the “CD28 scFv signal in presence of CD28” value is reported as 0.246.
For B24, the “CD28 scFv signal in presence of CD28” value was 0.137.
In the case of B25, the “CD28 scFv signal in presence of CD28” value is reported as 0.584.
With B26 the “CD28 scFv signal in presence of CD28” value was 0.421.
With B27 the “CD28 scFv signal in presence of CD28” value was 0.549.
B28 was tested, and the “CD28 scFv signal in presence of CD28” value was 0.283.
In the case of B29, the “CD28 scFv signal in presence of CD28” value is reported as 0.422.
In the case of B30, the “CD28 scFv signal in presence of CD28” value is reported as 0.404.
For B31, the “CD28 scFv signal in presence of CD28” value was 0.227.
For B32, the “CD28 scFv signal in presence of CD28” value was 0.21.

What follows are binders tested against T1, Anti-CD28 Fab (SEQ ID NOs: 696, 697) (assay: phage binding ELISA, biotinylated Fab on neutravidin plate, anti-M13 HRP detection;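 note: crude clonal phage supernatants added to Fab-coated wells pretreated with CD28 antigen or with blocking buffer only, bound phage measured after washing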).
Procedure: as §1, §2
For B1, the “Anti-CD28 Fab (SEQ ID NOs: 696, 697) signal” value was 0.84.
For B2, the “Anti-CD28 Fab (SEQ ID NOs: 696, 697) signal” value was 1.51.
With B3 the “Anti-CD28 Fab (SEQ ID NOs: 696, 697) signal” value was 1.44.
B4 was tested, and the “Anti-CD28 Fab (SEQ ID NOs: 696, 697) signal” value was 2.51.
B5 was tested, and the “Anti-CD28 Fab (SEQ ID NOs: 696, 697) signal” value was 2.38.
B6 was tested, and the “Anti-CD28 Fab (SEQ ID NOs: 696, 697) signal” value was 1.65.
With B7 the “Anti-CD28 Fab (SEQ ID NOs: 696, 697) signal” value was 0.64.
B8 was tested, and the “Anti-CD28 Fab (SEQ ID NOs: 696, 697) signal” value was 1.77.
B9 was tested, and the “Anti-CD28 Fab (SEQ ID NOs: 696, 697) signal” value was 1.49.
With B10 the “Anti-CD28 Fab (SEQ ID NOs: 696, 697) signal” value was 2.27.
B11 was tested, and the “Anti-CD28 Fab (SEQ ID NOs: 696, 697) signal” value was 1.55.
For B12, the “Anti-CD28 Fab (SEQ ID NOs: 696, 697) signal” value was 0.91.
B13 was tested, and the “Anti-CD28 Fab (SEQ ID NOs: 696, 697) signal” value was 2.3.
For B14, the “Anti-CD28 Fab (SEQ ID NOs: 696, 697) signal” value was 1.85.
In the case of B15, the “Anti-CD28 Fab (SEQ ID NOs: 696, 697) signal” value is reported as 0.92.
In the case of B16, the “Anti-CD28 Fab (SEQ ID NOs: 696, 697) signal” value is reported as 2.09.
In the case of B17, the “Anti-CD28 Fab (SEQ ID NOs: 696, 697) signal” value is reported as 1.49.

The binders below were run against T2, anti-CD28 scFv (VH - linker 1 - VL) (assay: phage ELISA; biotinylated anti-CD28 scFv on neutravidin plate, clonal phage supernatant, anti-M13 HRP).
Procedure: Clonal phage were harvested as crude supernatants and screened via standard enzyme linked immunosorbent assays (ELISAs). […] Prior to the addition of clonal phage, wells were incubated with blocking buffer and CD28 soluble protein or blocking buffer alone. Without washing or aspirating, clonal phage supernatants were then added to the wells and incubated for a short time. Wells were then washed followed by detection of bound phage using a horse radish peroxidase conjugated anti-M13 antibody.
For B18, the “CD28 scFv signal” value was 2.53.
In the case of B19, the “CD28 scFv signal” value is reported as 2.53.
With B20 the “CD28 scFv signal” value was 2.58.
B21 was tested, and the “CD28 scFv signal” value was 2.53.
B22 was tested, and the “CD28 scFv signal” value was 2.57.
With B23 the “CD28 scFv signal” value was 2.57.
For B24, the “CD28 scFv signal” value was 2.52.
In the case of B25, the “CD28 scFv signal” value is reported as 2.57.
For B26, the “CD28 scFv signal” value was 2.49.
B27 was tested, and the “CD28 scFv signal” value was 2.56.
For B28, the “CD28 scFv signal” value was 2.53.
B29 was tested, and the “CD28 scFv signal” value was 2.57.
In the case of B30, the “CD28 scFv signal” value is reported as 2.56.
With B31 the “CD28 scFv signal” value was 2.57.
For B32, the “CD28 scFv signal” value was 2.5.
